T1: FcγRIIa(H) (human, UniProt P12318 34-217)
T1 construct: extracellular domain; also called 2aH
T1 sequence: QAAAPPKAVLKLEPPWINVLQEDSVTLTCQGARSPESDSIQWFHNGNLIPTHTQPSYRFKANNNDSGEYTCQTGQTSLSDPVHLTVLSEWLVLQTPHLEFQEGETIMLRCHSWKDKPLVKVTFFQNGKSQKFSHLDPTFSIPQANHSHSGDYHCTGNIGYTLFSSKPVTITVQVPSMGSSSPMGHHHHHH

T2: FcγRIIa(R) (human, UniProt P12318 34-217)
T2 construct: extracellular domain; also called 2aR
T2 sequence: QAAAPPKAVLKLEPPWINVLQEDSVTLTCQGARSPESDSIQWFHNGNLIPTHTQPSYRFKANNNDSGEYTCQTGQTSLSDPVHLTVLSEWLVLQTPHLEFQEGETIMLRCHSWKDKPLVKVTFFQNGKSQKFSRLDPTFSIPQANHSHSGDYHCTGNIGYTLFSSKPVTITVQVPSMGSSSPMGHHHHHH

T3: FcγRIIb (human, UniProt P31994 43-217)
T3 construct: extracellular domain; also called 2b
T3 sequence: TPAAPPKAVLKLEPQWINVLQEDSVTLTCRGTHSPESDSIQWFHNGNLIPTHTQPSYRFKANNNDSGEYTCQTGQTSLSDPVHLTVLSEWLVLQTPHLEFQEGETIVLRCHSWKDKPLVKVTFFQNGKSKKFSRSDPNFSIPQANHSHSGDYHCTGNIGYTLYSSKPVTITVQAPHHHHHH


What was measured:
Assay in all cases: SPR, relative to GpH7-A5/GpH7-B3/GpL16-k0 =100
FcγRIIa(H) = biological target: T1, FcγRIIa(H)
FcγRIa = biological target: T4, FcγRIa (human, UniProt P12314 16-292)
T4 construct: extracellular domain; also called 1a

FcγRIIa(R) = biological target: T2, FcγRIIa(R)
FcγRIIb = biological target: T3, FcγRIIb

T4 sequence (P12314 other isoform, or with tags, fused parts or gaps): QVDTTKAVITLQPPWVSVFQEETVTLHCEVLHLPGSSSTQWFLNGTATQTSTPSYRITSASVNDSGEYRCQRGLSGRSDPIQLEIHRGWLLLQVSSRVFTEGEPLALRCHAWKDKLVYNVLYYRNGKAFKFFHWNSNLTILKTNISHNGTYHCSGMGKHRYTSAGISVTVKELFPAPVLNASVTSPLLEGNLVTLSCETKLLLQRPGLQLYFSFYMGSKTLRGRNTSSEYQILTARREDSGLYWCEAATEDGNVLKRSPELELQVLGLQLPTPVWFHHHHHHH

Row | Binder | He/Con 2aH (FcγRIIa(H)) | He/Con 1a (FcγRIa) | He/Con 2aR (FcγRIIa(R)) | He/Con 2b (FcγRIIb)
1 | GpH7-A5/GpH7-B3 variant S298_14T/GpL16-k0 (antibody, human IgG1, kappa, He Ab: heterodimerized IgG1, one H chain mutated) heavy 1: not shown heavy 2: not shown light: DIVMTQSPLSLPVTPGEPASISCQASESLVHSNRNTYLHWYLQKPGQSPQLLIYKVSNRFSGVPDRFSGSGSGTDFTLKISRVEAEDVGVYYCSQNTHVPPTFGQGTKVEIERTVAAPSVFIFPPSDEQLKSGTASVVCLLNNFYPREAKVQWKVDNALQSGNSQESVTEQDSKDSTYSLSSTLTLSKADYEKHKVYACEVTHQGLSSPVTKSFNRGEC | 96.2% | 104% | 94.2% | 79%
2 | GpH7-A5/GpH7-B3 variant S298_08L/GpL16-k0 (antibody, human IgG1, kappa, He Ab: heterodimerized IgG1, one H chain mutated) heavy 1: not shown heavy 2: not shown light: DIVMTQSPLSLPVTPGEPASISCQASESLVHSNRNTYLHWYLQKPGQSPQLLIYKVSNRFSGVPDRFSGSGSGTDFTLKISRVEAEDVGVYYCSQNTHVPPTFGQGTKVEIERTVAAPSVFIFPPSDEQLKSGTASVVCLLNNFYPREAKVQWKVDNALQSGNSQESVTEQDSKDSTYSLSSTLTLSKADYEKHKVYACEVTHQGLSSPVTKSFNRGEC | 83% | 104% | 100% | 110%
3 | GpH7-A5/GpH7-B3 variant S324_01G/GpL16-k0 (antibody, human IgG1, kappa, He Ab: heterodimerized IgG1, one H chain mutated) heavy 1: not shown heavy 2: not shown light: DIVMTQSPLSLPVTPGEPASISCQASESLVHSNRNTYLHWYLQKPGQSPQLLIYKVSNRFSGVPDRFSGSGSGTDFTLKISRVEAEDVGVYYCSQNTHVPPTFGQGTKVEIERTVAAPSVFIFPPSDEQLKSGTASVVCLLNNFYPREAKVQWKVDNALQSGNSQESVTEQDSKDSTYSLSSTLTLSKADYEKHKVYACEVTHQGLSSPVTKSFNRGEC | 110% | 93.2% | 94.4% | 106%
4 | GpH7-A5/GpH7-B3 variant S298_12R/GpL16-k0 (antibody, human IgG1, kappa, He Ab: heterodimerized IgG1, one H chain mutated) heavy 1: not shown heavy 2: not shown light: DIVMTQSPLSLPVTPGEPASISCQASESLVHSNRNTYLHWYLQKPGQSPQLLIYKVSNRFSGVPDRFSGSGSGTDFTLKISRVEAEDVGVYYCSQNTHVPPTFGQGTKVEIERTVAAPSVFIFPPSDEQLKSGTASVVCLLNNFYPREAKVQWKVDNALQSGNSQESVTEQDSKDSTYSLSSTLTLSKADYEKHKVYACEVTHQGLSSPVTKSFNRGEC | 67.4% | 106% | 81.6% | 58.6%
5 | GpH7-A5/GpH7-B3 variant S298_16H/GpL16-k0 (antibody, human IgG1, kappa, He Ab: heterodimerized IgG1, one H chain mutated) heavy 1: not shown heavy 2: not shown light: DIVMTQSPLSLPVTPGEPASISCQASESLVHSNRNTYLHWYLQKPGQSPQLLIYKVSNRFSGVPDRFSGSGSGTDFTLKISRVEAEDVGVYYCSQNTHVPPTFGQGTKVEIERTVAAPSVFIFPPSDEQLKSGTASVVCLLNNFYPREAKVQWKVDNALQSGNSQESVTEQDSKDSTYSLSSTLTLSKADYEKHKVYACEVTHQGLSSPVTKSFNRGEC | 80.2% | 105% | 84.7% | 64.4%
6 | GpH7-A5/GpH7-B3 variant S324_03V/GpL16-k0 (antibody, human IgG1, kappa, He Ab: heterodimerized IgG1, one H chain mutated) heavy 1: not shown heavy 2: not shown light: DIVMTQSPLSLPVTPGEPASISCQASESLVHSNRNTYLHWYLQKPGQSPQLLIYKVSNRFSGVPDRFSGSGSGTDFTLKISRVEAEDVGVYYCSQNTHVPPTFGQGTKVEIERTVAAPSVFIFPPSDEQLKSGTASVVCLLNNFYPREAKVQWKVDNALQSGNSQESVTEQDSKDSTYSLSSTLTLSKADYEKHKVYACEVTHQGLSSPVTKSFNRGEC | 108% | 97.7% | 113% | 128%
7 | GpH7-A5/GpH7-B3 variant S324_02A/GpL16-k0 (antibody, human IgG1, kappa, He Ab: heterodimerized IgG1, one H chain mutated) heavy 1: not shown heavy 2: not shown light: DIVMTQSPLSLPVTPGEPASISCQASESLVHSNRNTYLHWYLQKPGQSPQLLIYKVSNRFSGVPDRFSGSGSGTDFTLKISRVEAEDVGVYYCSQNTHVPPTFGQGTKVEIERTVAAPSVFIFPPSDEQLKSGTASVVCLLNNFYPREAKVQWKVDNALQSGNSQESVTEQDSKDSTYSLSSTLTLSKADYEKHKVYACEVTHQGLSSPVTKSFNRGEC | 114% | 96.9% | 99.9% | 102%
8 | GpH7-A5/GpH7-B3 variant S324_09D/GpL16-k0 (antibody, human IgG1, kappa, He Ab: heterodimerized IgG1, one H chain mutated) heavy 1: not shown heavy 2: not shown light: DIVMTQSPLSLPVTPGEPASISCQASESLVHSNRNTYLHWYLQKPGQSPQLLIYKVSNRFSGVPDRFSGSGSGTDFTLKISRVEAEDVGVYYCSQNTHVPPTFGQGTKVEIERTVAAPSVFIFPPSDEQLKSGTASVVCLLNNFYPREAKVQWKVDNALQSGNSQESVTEQDSKDSTYSLSSTLTLSKADYEKHKVYACEVTHQGLSSPVTKSFNRGEC | 117% | 97.7% | 102% | 112%
9 | GpH7-A5/GpH7-B3 variant S324_06M/GpL16-k0 (antibody, human IgG1, kappa, He Ab: heterodimerized IgG1, one H chain mutated) heavy 1: not shown heavy 2: not shown light: DIVMTQSPLSLPVTPGEPASISCQASESLVHSNRNTYLHWYLQKPGQSPQLLIYKVSNRFSGVPDRFSGSGSGTDFTLKISRVEAEDVGVYYCSQNTHVPPTFGQGTKVEIERTVAAPSVFIFPPSDEQLKSGTASVVCLLNNFYPREAKVQWKVDNALQSGNSQESVTEQDSKDSTYSLSSTLTLSKADYEKHKVYACEVTHQGLSSPVTKSFNRGEC | 122% | 104% | 118% | 126%
10 | GpH7-A5/GpH7-B3 variant S324_08L/GpL16-k0 (antibody, human IgG1, kappa, He Ab: heterodimerized IgG1, one H chain mutated) heavy 1: not shown heavy 2: not shown light: DIVMTQSPLSLPVTPGEPASISCQASESLVHSNRNTYLHWYLQKPGQSPQLLIYKVSNRFSGVPDRFSGSGSGTDFTLKISRVEAEDVGVYYCSQNTHVPPTFGQGTKVEIERTVAAPSVFIFPPSDEQLKSGTASVVCLLNNFYPREAKVQWKVDNALQSGNSQESVTEQDSKDSTYSLSSTLTLSKADYEKHKVYACEVTHQGLSSPVTKSFNRGEC | 106% | 97.3% | 110% | 117%

The next lines start with the values.

Row | He/Con 2aH (FcγRIIa(H)) | He/Con 1a (FcγRIa) | He/Con 2aR (FcγRIIa(R)) | He/Con 2b (FcγRIIb) | Binder
11 | 84.9% | 104% | 86.2% | 71.5% | GpH7-A5/GpH7-B3 variant S298_07I/GpL16-k0 (antibody, human IgG1, kappa, He Ab: heterodimerized IgG1, one H chain mutated) heavy 1: not shown heavy 2: not shown light: DIVMTQSPLSLPVTPGEPASISCQASESLVHSNRNTYLHWYLQKPGQSPQLLIYKVSNRFSGVPDRFSGSGSGTDFTLKISRVEAEDVGVYYCSQNTHVPPTFGQGTKVEIERTVAAPSVFIFPPSDEQLKSGTASVVCLLNNFYPREAKVQWKVDNALQSGNSQESVTEQDSKDSTYSLSSTLTLSKADYEKHKVYACEVTHQGLSSPVTKSFNRGEC
12 | 107% | 96.2% | 109% | 125% | GpH7-A5/GpH7-B3 variant S324_07I/GpL16-k0 (antibody, human IgG1, kappa, He Ab: heterodimerized IgG1, one H chain mutated) heavy 1: not shown heavy 2: not shown light: DIVMTQSPLSLPVTPGEPASISCQASESLVHSNRNTYLHWYLQKPGQSPQLLIYKVSNRFSGVPDRFSGSGSGTDFTLKISRVEAEDVGVYYCSQNTHVPPTFGQGTKVEIERTVAAPSVFIFPPSDEQLKSGTASVVCLLNNFYPREAKVQWKVDNALQSGNSQESVTEQDSKDSTYSLSSTLTLSKADYEKHKVYACEVTHQGLSSPVTKSFNRGEC
13 | 106% | 103% | 99.6% | 99.9% | GpH7-A5/GpH7-B3 variant S324_04F/GpL16-k0 (antibody, human IgG1, kappa, He Ab: heterodimerized IgG1, one H chain mutated) heavy 1: not shown heavy 2: not shown light: DIVMTQSPLSLPVTPGEPASISCQASESLVHSNRNTYLHWYLQKPGQSPQLLIYKVSNRFSGVPDRFSGSGSGTDFTLKISRVEAEDVGVYYCSQNTHVPPTFGQGTKVEIERTVAAPSVFIFPPSDEQLKSGTASVVCLLNNFYPREAKVQWKVDNALQSGNSQESVTEQDSKDSTYSLSSTLTLSKADYEKHKVYACEVTHQGLSSPVTKSFNRGEC
14 | 71.2% | 104% | 75.7% | 62.2% | GpH7-A5/GpH7-B3 variant S298_15Y/GpL16-k0 (antibody, human IgG1, kappa, He Ab: heterodimerized IgG1, one H chain mutated) heavy 1: not shown heavy 2: not shown light: DIVMTQSPLSLPVTPGEPASISCQASESLVHSNRNTYLHWYLQKPGQSPQLLIYKVSNRFSGVPDRFSGSGSGTDFTLKISRVEAEDVGVYYCSQNTHVPPTFGQGTKVEIERTVAAPSVFIFPPSDEQLKSGTASVVCLLNNFYPREAKVQWKVDNALQSGNSQESVTEQDSKDSTYSLSSTLTLSKADYEKHKVYACEVTHQGLSSPVTKSFNRGEC
15 | 88.9% | 106% | 90.9% | 74.3% | GpH7-A5/GpH7-B3 variant S298_19Q/GpL16-k0 (antibody, human IgG1, kappa, He Ab: heterodimerized IgG1, one H chain mutated) heavy 1: not shown heavy 2: not shown light: DIVMTQSPLSLPVTPGEPASISCQASESLVHSNRNTYLHWYLQKPGQSPQLLIYKVSNRFSGVPDRFSGSGSGTDFTLKISRVEAEDVGVYYCSQNTHVPPTFGQGTKVEIERTVAAPSVFIFPPSDEQLKSGTASVVCLLNNFYPREAKVQWKVDNALQSGNSQESVTEQDSKDSTYSLSSTLTLSKADYEKHKVYACEVTHQGLSSPVTKSFNRGEC
16 | 63.9% | 106% | 91% | 62.2% | GpH7-A5/GpH7-B3 variant S298_11K/GpL16-k0 (antibody, human IgG1, kappa, He Ab: heterodimerized IgG1, one H chain mutated) heavy 1: not shown heavy 2: not shown light: DIVMTQSPLSLPVTPGEPASISCQASESLVHSNRNTYLHWYLQKPGQSPQLLIYKVSNRFSGVPDRFSGSGSGTDFTLKISRVEAEDVGVYYCSQNTHVPPTFGQGTKVEIERTVAAPSVFIFPPSDEQLKSGTASVVCLLNNFYPREAKVQWKVDNALQSGNSQESVTEQDSKDSTYSLSSTLTLSKADYEKHKVYACEVTHQGLSSPVTKSFNRGEC

Reference: patent publication US20260167699A1 (Chugai, published 2026)
